Data reported in the supplement of paper PMC12667976.
± gives the standard error.

B1: library; numbered along this chain (parent)
chain: MATDAALRRLLRLHRTEIAVAVDSAFPLLHALADHDVVPEDKFQETLHLKEKEGCPQAFHALLSWLLTQDSTAILDFWRVLFKDYNLERYGRLQPILDSFPKDVDLSQPRKGRKPPAVPKALVPPPRLPTKRKASEEARAAAPAALTPRGTASPGSQLKAKPPKKPESSAEQQRLPLGNGIQTMSASVQRAVAMSSGDVPGARGAVEGILIQQVFESGGSKKCIQVGGEFYTPSKFEDSGSGKNKARSSSGPKPLVRAKGAQGAAPGGGEARLGQQGSVPAPLALPSDPQLHQKNEDECAVCRDGGELICCDGCPRAFHLACLSPPLREIPSGTWRCSSCLQATVQEVQPRAEEPRPQEPPVETPLPPGLRSAGEEVRGPPGEPLAGMDTTLVYKHLPAPPSAAPLPGLDSSALHPLLCVGPEGQQNLAPGARCGVCGDGTDVLRCTHCAAAFHWRCHFPAGTSRPGTGLRCRSCSGDVTPAPVEGVLAPSPARLAPGPAKDDTASHEPALHRDDLESLLSEHTFDGILQWAIQSMARPAAPFPS

Variants of: B1
Assay: AIRE transcriptional activation functional score (insulin promoter-GFP; nonsense median 0, synonymous median 1) (normalised score); higher = higher AIRE activity (more reporter activation)
Conditions: with insulin promoter-GFP reporter in HEK293
Method in brief: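 Three regions of AIRE were covered by codon-optimized NNN-codon libraries, which Bxb1 recombinase integrated into Flp-In T-REx HEK293 landing-pad cells that carry an insulin core promoter-GFP reporter. Integrants (mCherry+, BFP−) were sorted at day 7 and expanded 7 days, and then the top 10% GFP population and the unselected integrant population were tile-sequenced. The functional score is the enrichment of each variant in select versus non-select cells, with wild type subtracted. Variants required 10 counts per million in non-select, and values were rescaled to a nonsense median of 0 and a synonymous median of 1, then averaged over biological replicates.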

AIRE transcriptional activation functional score of substitutions, site by site:
P481: I 0.238 ± 0.19, E 0.44 ± 0.17, T 0.704 ± 0.14, D 1.21 ± 0.15, C 0.688 ± 0.32, H 1.14 ± 0.073, K 1.02 ± 0.054, L 0.8 ± 0.19, N 0.00715 ± 0.27, Y 1.37 ± 0.058, F 1.16 ± 0.26, R 0.956 ± 0.17, G 0.747 ± 0.45, A 0.586 ± 0.34, V 1.38 ± 0.086, M 1.29 ± 0.04, S 0.91 ± 0.43, W 1.39 ± 0.17, Q 0.501 ± 0.69
T480: R 0.837 ± 0.35, W 1.13 ± 0.096, S 0.786 ± 0.59, H 1.18 ± 0.072, Y 0.806 ± 0.041, K 0.954 ± 0.12, I 0.515 ± 0.16, P 1.05 ± 0.32, Q 0.203 ± 0.14, A 0.564 ± 0.23, V 1.45 ± 0.081, G 1.11 ± 0.26, L 1 ± 0.23, D 0.65 ± 0.2, C 1.12 ± 0.052, F 1.32 ± 0.13, N 0.784 ± 0.37
P483: H 1.13 ± 0.088, M 1.36 ± 0.045, L 0.603 ± 0.34, S 0.811 ± 0.27, T 1.46 ± 0.12, R 1.03 ± 0.24, C 1.44 ± 0.08, Q 0.926 ± 0.086, K 0.675 ± 0.19, V 1.03 ± 0.074, F 1.33 ± 0.075, A 0.722 ± 0.33, I 1.6 ± 0.16, G 1.89 ± 0.095, N 0.937 ± 0.11
S476: C 0.608 ± 0.23, T 1.2 ± 0.2, I 1.23 ± 0.15, R 0.828 ± 0.26, K 0.603 ± 0.21, A 0.905 ± 0.28, D 0.455 ± 0.12, Q 0.151 ± 0.11, L 0.829 ± 0.29, Y 1.19 ± 0.18, P 1.02 ± 0.29, F 1.21 ± 0.13, W 1.09 ± 0.037, G 0.844 ± 0.26, V 0.878 ± 0.21, H 0.529 ± 0.051, M 0.943 ± 0.047, E 0.948 ± 0.19
P490: A 0.812 ± 0.14
L488: A 1.27 ± 0.25, Q 0.827 ± 0.24, I 0.826 ± 0.27, G 1.03 ± 0.27, F 1.13 ± 0.078, E 0.182 ± 0.21, P 1.04 ± 0.17, T 1.18 ± 0.22, M 0.976 ± 0.11, V 1.09 ± 0.29, H 0.298 ± 0.17, R 0.722 ± 0.19, D 0.449 ± 0.34, K 1.07 ± 0.24, C 0.742 ± 0.29, N 0.961 ± 0.29, W 1.32 ± 0.047, Y 1.31 ± 0.13, S 0.854 ± 0.22
C475: G 0.304 ± 0.28, S 0.0047 ± 0.16, D -0.0916 ± 0.039, F 0.14 ± 0.18, M -0.469 ± 0.15, E -0.103 ± 0.23, H 0.16 ± 0.15, R -0.148 ± 0.29, T 0.102 ± 0.073, A 0.119 ± 0.18, W -0.0091 ± 0.044, Y 0.0941 ± 0.16, N 0.255 ± 0.099, Q 0.568 ± 0.1, L 0.0763 ± 0.17, I 0.147 ± 0.15, P -0.156 ± 0.23, V 0.0724 ± 0.17, K -0.353 ± 0.079
S474: A 0.936 ± 0.28, G 0.801 ± 0.26, D 1.33 ± 0.69, I 0.0981 ± 0.21, C 0.824 ± 0.33, T 0.317 ± 0.15, N 0.296 ± 0.24, M 0.192 ± 0.059, V 0.167 ± 0.17, L 0.185 ± 0.081, Q 1.02 ± 0.055, H 0.593 ± 0.069, P 1.17 ± 0.28, R 0.817 ± 0.32, E 1.16 ± 0.11, Y 0.736 ± 0.19, F 1.12 ± 0.067, K 0.466 ± 0.19
V487: F 0.765 ± 0.31, M 0.568 ± 0.19, S 0.901 ± 0.14, L 1.03 ± 0.18, N 0.296 ± 0.28, R 0.785 ± 0.2, P 1.04 ± 0.099, Y 1.13 ± 0.23, A 1.02 ± 0.19, K 0.821 ± 0.28, G 0.931 ± 0.44, Q 0.492 ± 0.13, W 0.552 ± 0.24, C 0.67 ± 0.29, I 1.06 ± 0.14, T 1.5 ± 0.077, H 0.858 ± 0.48, E -0.349 ± 0.43
V484: A 0.726 ± 0.16, D 0.164 ± 0.18, T 1.04 ± 0.26, Y 0.975 ± 0.11, F 0.8 ± 0.35, Q 1.72 ± 0.046, E 0.615 ± 0.12, G 1.18 ± 0.29, I 1.45 ± 0.18, W 1.18 ± 0.11, S 0.906 ± 0.29, C 0.29 ± 0.025, R 0.893 ± 0.069, L 0.509 ± 0.47
A489: C 1.19 ± 0.1, Q 0.0401 ± 0.2, F 1.16 ± 0.26, M 1.23 ± 0.08, L 1.06 ± 0.14, V 0.959 ± 0.15, I 0.859 ± 0.35, K 0.705 ± 0.14, D 1.17 ± 0.2, W 0.893 ± 0.068, S 0.687 ± 0.46, T 1.44 ± 0.15, Y 1.22 ± 0.2, G 0.932 ± 0.37, P 1.01 ± 0.25, E 0.655 ± 0.041, R 0.51 ± 0.42, H 1.18 ± 0.099
R473: I 0.852 ± 0.71, P 0.607 ± 0.32, C 0.937 ± 0.055, F 0.997 ± 0.18, W 0.97 ± 0.13, D 0.836 ± 0.06, G 0.848 ± 0.2, N 0.99 ± 0.077, T 1.06 ± 0.22, S 0.755 ± 0.1, E 1.16 ± 0.2, V 0.334 ± 0.23, M 0.947 ± 0.08, Q 0.968 ± 0.13, L 1.29 ± 0.21, Y 1.64 ± 0.16, H -0.49 ± 0.25, A 0.794 ± 0.38, K 0.66 ± 0.16
C472: M -0.0949 ± 0.19, L -0.0415 ± 0.19, K 0.158 ± 0.12, H -0.28 ± 0.12, D -0.251 ± 0.19, V 0.0438 ± 0.1, G 0.0511 ± 0.1, E 0.216 ± 0.091, I 0.154 ± 0.19, W -0.112 ± 0.06, N 0.0317 ± 0.94, T -0.165 ± 0.16, Q -0.424 ± 0.073, P -0.298 ± 0.19, S -0.0588 ± 0.17, Y 0.117 ± 0.072, R 0.0742 ± 0.14, F 0.226 ± 0.17, A -0.164 ± 0.22
V479: C 1.15 ± 0.25, T 0.956 ± 0.13, Q 1.24 ± 0.31, D 0.363 ± 0.13, P 0.967 ± 0.091, S 0.925 ± 0.28, K 0.833 ± 0.14, M 1.1 ± 0.13, R 0.978 ± 0.11, I 0.977 ± 0.18, N 1.08 ± 0.13, F 0.98 ± 0.093, W 1.09 ± 0.053, L 0.811 ± 0.29, H 1.16 ± 0.12, G 0.838 ± 0.33, A 0.734 ± 0.36, E 1.39 ± 0.038, Y 0.896 ± 0.28
G477: R 0.787 ± 0.29, W 0.745 ± 0.15, V 1.13 ± 0.3, F 1.36 ± 0.11, E 0.302 ± 0.23, I 1.01 ± 0.33, H 1.41 ± 0.098, L 0.273 ± 0.39, Q 0.0223 ± 0.072, P 1.46 ± 0.14, A 0.739 ± 0.25, M 1.01 ± 0.059, K 1.11 ± 0.11, S 0.661 ± 0.27, C 0.926 ± 0.17, N 1.12 ± 0.16, Y 0.642 ± 0.12, T -0.261 ± 0.17, D 0.678 ± 0.17
A482: V 1.23 ± 0.32, Y 1.42 ± 0.1, D 1.42 ± 0.057, P 1.92 ± 0.39, L 1.44 ± 0.068, K 1.11 ± 0.17, N 1.2 ± 0.25, E 1.28 ± 0.092, I 1.32 ± 0.4, T 0.312 ± 0.16, F -0.132 ± 0.24, R 0.557 ± 0.26, S 1.34 ± 0.11, Q 0.773 ± 0.13, G 1.31 ± 0.59
E485: D 0.981 ± 0.16, N 0.645 ± 0.4, H 0.537 ± 0.11, A 0.466 ± 0.38, K 0.777 ± 0.1, T 1.02 ± 0.18, W 1.08 ± 0.049, V 0.951 ± 0.26, P 1.25 ± 0.21, Y 0.948 ± 0.18, F 1.1 ± 0.035, C 1.24 ± 0.047, M -0.286 ± 0.13, G 1.05 ± 0.11, R 0.652 ± 0.17, S 0.955 ± 0.21, I 1.1 ± 0.23, L 1.11 ± 0.13, Q 0.397 ± 0.44
D478: V 0.89 ± 0.17, Q 0.891 ± 0.1, C 0.947 ± 0.032, Y 0.902 ± 0.085, N 0.709 ± 0.056, T 0.678 ± 0.31, S 0.816 ± 0.23, G 0.841 ± 0.13, I 1.06 ± 0.083, P 0.801 ± 0.34, L 0.949 ± 0.13, F 0.799 ± 0.11, H 0.829 ± 0.047, M 0.485 ± 0.043, K 0.926 ± 0.088, R 0.412 ± 0.24, W 0.544 ± 0.033, E 1.09 ± 0.098, A 0.808 ± 0.31
G486: A 0.707 ± 0.48, V 1.45 ± 0.5, L 1.03 ± 0.4, I 1.37 ± 0.12, W 1.49 ± 0.017, Q 0.85 ± 0.15, N 0.995 ± 0.084, E 0.566 ± 0.18, R 0.926 ± 0.16, K 0.91 ± 0.17, F 1.46 ± 0.11, Y 0.737 ± 0.24, S 1.16 ± 0.21, D 0.692 ± 0.16, H 1.27 ± 0.27, P 1 ± 0.4, T 0.154 ± 0.23, C 0.625 ± 0.26
R471: T 0.747 ± 0.38, P 0.89 ± 0.25, I 1.05 ± 0.38, V 0.217 ± 0.32, Q 0.5 ± 0.21, Y 1.13 ± 0.23, K 0.921 ± 0.077, L 0.799 ± 0.34, S 0.674 ± 0.38, M 1.36 ± 0.14, W 1.12 ± 0.1
